Source: patent US20060177831A1 (published 2006)

B1: c-MET extracellular domain (ECD)/Fc chimera (Fc fusion, not shown: a dimerising Fc or GST)
chain: ECKEALAKSEMNVNMKYQLPNFTAETPIQNVILHEHHIFLGATNYIYVLNEEDLQKVAEYKTGPVLEHPDCFPCQDCSSKANLSGGVWKDNINMALVVDTYYDDQLISCGSVNRGTCQRHVFPHNHTADIQSEVHCIFSPQIEEPSQCPDCVVSALGAKVLSSVKDRFINFFVGNTINSSYFPDHPLHSISVRRLKETKDGFMFLTDQSYIDVLPEFRDSYPIKYVHAFESNNFIYFLTVQRETLDAQTFHTRIIRFCSINSGLHSYMEMPLECILTEKRKKRSTKKEVFNILQAAYVSKPGAQLARQIGASLNDDILFGVFAQSKPDSAEPMDRSAMCAFPIKYVNDFFNKIVNKNNVRCLQHFYGPNHEHCFNRTLLRNSSGCEARRDEYRTEFTTALQRVDLFMGQFSEVLLTSISTFIKGDLTIANLGTSEGRFMQVVVSRSGPSTPHVNFLLDSHPVSPEVIVEHTLNQNGYTLVITGKKITKIPLNGLGCRHFQSCSQCLSAPPFVQCGWCHDKCVRSEECLSGTWTQQICLPAIYKVFPNSAPLEGGTRLTICGWDFGFRRNNKFDLKKTRVLLGNESCTLTLSESTMNTLKCTVGPAMNKHFNMSIIISNGHGTTQYSTFSYVDPVITSISPKYGPMAGGTLLTLTGNYLNSGNSRHISIGGKTCTLKSVSNSILECYTPAQTISTEFAVKLKIDLANRETSIFSYREDPIVYEIHPTKSFISGGSTITGVGKNLNSVSVPRMVINVHEAGRNFTVACQHRSNSEIICCTTPSLQQLNLQLPLKTKAFFMLDGILSKYFDLIYVHNPVFKPFEKPVMISMGNENVLEIKGNDIDPEAVKGEVLKVGNKSCENIHLHSEAVLCTVPNDLLKLNSELNIEWKQAISSTVLGKVIVQPDQNFT
B2: Anti-c-MET Avimer monomer M13 (designed binder)
chain: CLADEFQCHSTKRCVPRHWLCDGVNDCEDGSDEKSCSQDPEFHKVSLQ
notes: Assayed protein also bears HA and 6His tags; also called C239
B3: Anti-c-MET Avimer monomer M20 (designed binder)
chain: CEADEFRCRSTGRCISVDWRCDGVSDCEDSSDEESCESTAPTSLQ
notes: Assayed protein also bears HA and 6His tags; also called C381
B4: Anti-c-MET Avimer monomer M21 (designed binder)
chain: CVSNEFTCRSTKRCVPQEWVCDGVNDCEDGSDETGCPKHTSLQ
notes: Assayed protein also bears HA and 6His tags; also called C382
B5: Anti-c-MET Avimer monomer M38 (designed binder)
chain: B4 chain
notes: Assayed protein also bears HA and 6His tags; also called C399

Experiments:
recombinant human HGF = recombinant human HGF (human, UniProt P14210 32-728); assay: cell-based or functional assay
Sequence of recombinant human HGF (P14210 32-728 limits assumed): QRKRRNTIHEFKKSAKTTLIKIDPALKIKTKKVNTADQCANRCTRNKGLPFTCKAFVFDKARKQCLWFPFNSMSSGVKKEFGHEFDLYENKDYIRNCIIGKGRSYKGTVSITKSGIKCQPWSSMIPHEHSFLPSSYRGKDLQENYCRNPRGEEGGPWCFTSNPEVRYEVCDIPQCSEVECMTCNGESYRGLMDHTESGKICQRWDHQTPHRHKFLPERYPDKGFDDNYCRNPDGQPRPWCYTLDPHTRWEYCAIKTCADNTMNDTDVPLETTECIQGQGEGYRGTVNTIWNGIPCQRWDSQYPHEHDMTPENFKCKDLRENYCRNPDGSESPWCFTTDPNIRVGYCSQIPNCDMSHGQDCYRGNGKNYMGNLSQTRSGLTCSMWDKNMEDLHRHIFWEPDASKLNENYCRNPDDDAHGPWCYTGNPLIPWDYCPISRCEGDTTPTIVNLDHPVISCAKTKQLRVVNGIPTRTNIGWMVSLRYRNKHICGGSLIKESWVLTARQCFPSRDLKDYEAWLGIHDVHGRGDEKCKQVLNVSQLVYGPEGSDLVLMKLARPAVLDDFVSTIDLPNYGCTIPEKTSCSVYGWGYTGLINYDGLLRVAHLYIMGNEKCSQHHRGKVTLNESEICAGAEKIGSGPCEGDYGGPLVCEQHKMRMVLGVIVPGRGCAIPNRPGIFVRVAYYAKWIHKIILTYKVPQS

[1] = target: B1; assay: AlphaScreen competition with bn-HGF for c-MET ECD/Fc, NiNTA-pure
[2] = target: B1; assay: binding ELISA on c-MET ECD/Fc, NiNTA-pure
[3] = target: B1; assay: AlphaScreen competition with bn-HGF for c-MET ECD/Fc, Q-pure

In the case of B1, the “IC50, inhibition of HGF-induced proliferation of serum-starved A549-SC cells (tritiated thymidine)” value (recombinant human HGF) is reported as 0.00173 µM.

For B2, the IC50 [1] was 0.247 µM.

Binder B3 has a Kd [2] of 0.158 µM, an IC50 [3] of 0.186 µM and an IC50 [1] of 0.022 µM.

Work on B4 yielded a Kd [2] of 0.116 µM and an IC50 [1] of 0.083 µM.

For B5, the Kd [2] was 0.095 µM, the IC50 [3] was 0.881 µM and the IC50 [1] was 0.05 µM.
